Assay results taken from paper PMC7156504 (2020).

B1: evolved scFvWFL variant 37 reformatted as IgG1 (antibody, V domains shown)
VH: QVQLVPSGAEVKKPGSSVKVSCKASGGTFWFGAFTWVRQAPGQGLEWMGGIIPTFGLTNLAQNFQGRVTITADESTSTVYMELSSLRSEDTAVYYCARSSRIYDLNPSLTAYYDMDVWGQGTMVTVSS
VL: QSVLTQPPSVSAAPGQKVTISCSGPSSDIGNNYVSWYQQLPGTAPKLLIYDNNKRPSGIPDRFSGSKSGTSATLGITGLQTGDEADYYCGTWDSSLSAWVFGGGTKLTVL
B2: IgGSTT, variant of MEDI1912 with W35S, F36T and L64T in VH (antibody, V domains shown)
VH: QVQLVQSGAEVKKPGSSVKVSCKASGGTFSTGAFTWVRQAPGQGLEWMGGIIPIFGTTNLAQNFQGRVTITADESTSTVYMELSSLRSEDTAVYYCARSSRIYDLNPSLTAYYDMDVWGQGTMVTVSS
VL: QSVLTQPPSVSAAPGQKVTISCSGSSSDIGNNYVSWYQQLPGTAPKLLIYDNNKRPSGIPDRFSGSKSGTSATLGITGLQTGDEADYYCGTWDSSLSAWVFGGGTKLTVL
B3: evolved scFvWFL variant 72 reformatted as IgG1 (antibody, V domains shown)
VH: QVQLVQSGAEVKKPGSSVKVSCKASGGTSWFGAFTWVRQAPGQGLEWMGGTIPIFGLTNLAQNFQGRVTITADESTSTVYMELSSLRSDDTAVYYCARSSRIYDLNPSLTAYYDMGVWGQGTMVTVSS
VL: QSVLTQPPSVSAAPGQKVTISCSGSSSDIGDNYVSWYQQLPGTAPKLLIYDNNKRPSGIPDRFSGSKSGTSATLGITGLQTGDEADYYCGTWDSSLSAWVFGGGTKLTVL
B4: MEDI578 (the parent antibody prior to affinity maturation into MEDI1912) (antibody, V domains shown)
VH: QVQLVQSGAEVKKPGSSVKVSCKASGGTFSTYGISWVRQAPGQGLEWMGGIIPIFDTGNSAQSFQGRVTITADESTSTAYMELSSLRSEDTAVYYCARSSRIYDLNPSLTAYYDMDVWGQGTMVTVSS
VL: QSVLTQPPSVSAAPGQKVTISCSGSSSNIGNNYVSWYQQLPGTAPKLLIYDNNKRPSGIPDRFSGSKSGTSATLGITGLQTGDEADYYCGTWDSSLSAWVFGGGTKLTVL
B5: evolved scFvWFL variant 130 reformatted as IgG1 (antibody, V domains shown)
VH: QVQLVQSGAEVKKPGSSVKVSCKASGGAFWFGAFTWVRQAPGQGLEWMGGITPIFGHTNLAQNFQGRVTITADESTSTVYMELSSLRSEDTAVYYCARSSRIYDLNPSLTAYYDMDVWGQGTMVTVSS
VL: QSVLTQPPSVSAAPGQKVTISCSGSSSDIGNNYVSWYQQLPGTAPKLLIYDNNKRPSGIPDRFSGSKSGTSATLGITGLQTGDEADYYCGTWDSSLSAWVFGGGTKLTVL
B6: evolved scFvWFL variant 11 reformatted as IgG1 (antibody, V domains shown)
VH: QVQLVRSGAEVKKPGSSVKVSCKASGGTFWFGAFTWVRQAPGQGLEWMGGIIPIFGLTNLAQNFQGRVTITADESTSTVYMELSSLRSEDTAVYYCARSSRIYDLNPSLAAYYDMDVWGQGTMVTVSS
VL: QSVLTQPPSVSAAPGQKVTIPCSGSSSDIGNNYVSWYQQLPGTAPKLLIYDNNKRPSGIPDRFSGSKSGTSATLGVTGLQTGDEADYYCGTWDSSLSAWVFGGGTKLTVL
B7: evolved scFvWFL variant 128 reformatted as IgG1 (antibody, V domains shown)
VH: QVQLVQSGAEVKKPGSSVKVSCKASGGTFWFGAFTWVRQAPGQGLEWMGGIIPIFGLTNLAQNFQGRVTITADESTSTVYMELSSLRSEDTAVYYCARSSRIYDLNPSLTADYDMDVWGQGTMVTVSS
VL: QSVLTQPPSVSAAPGQEVTISCSGSSSDIGNNYVSWYQQPPGAAPKLLIYDNNKRPSGIPDRFSGSKSGTSATLGITGLQTGDEADYYCGTWDSSLSAWVFGGGTKLTVL
B8: evolved scFvWFL variant 139 reformatted as IgG1 (antibody, V domains shown)
VH: QVQLVQSGAEVKKPGSSVKVSCKAGGGTFWSGAFTWVRQAPGQGLEWMGGIIPIFGLTNLAQNFQGRVTITADESTSTVYMELSSLRSEDTAVYYCARSSRTYDLNPSLTAYYDMDVWGQGTMVTVSS
VL: QSVLTQPPSVSAAPGQKVTISCSGSSSDIGNNYVSWYQQLPGTAPKLLIYDNNKRPSGIPDRFSGSKSGTTATLGITGLQTGDEADYYCGTWDSSLSAWVFGGGTKLTVL
B9: evolved scFvWFL variant 59 reformatted as IgG1 (antibody, V domains shown)
VH: QVQLVQSGAEVKKPGSSVKVSCKASGGTFRFGAFTWARQAPGQGLEWMGGIIPIFGLTNLAQNFQGRATITADESTSTVYMELSSLRSEDTAVYYCARSSRIYDLNPSLTAYYDMDVWGQGTMVTVSS
VL: QSVLTQPPSVSAAPGQKVTISCSGSSSDIGNNYVSWYQQLPGTAPKLLTYDNNKRPSGIPGRFSGSKSGTSATLGITGLQTGDEADYYCGTWDSSLSAWVFGGGTKLTVL
B10: evolved scFvWFL variant 176 reformatted as IgG1 (antibody, V domains shown)
VH: QVQLVRSGAEVKKPGSSVKVSCKASGGTFWFGAFTWVRQAPGQGLEWMGGIIPIFGLTNLAQNFQGRVTITADESTSTVYMELSSLRSEDTAVYYCARSSRIYDLNPSLTAYYDMDVWGQGTMVTVSS
VL: QSVLTQPPSVSAAPGQKVTISCSGSSSDIGNNYVSWYQQLPGTAPKLLIYDNNKRPSGIPDRFSGSKSGTSATLGITGLQTGDEADYYCGTWDSSLSAWVFGGGTKLTVL
B11: evolved scFvWFL variant 16 reformatted as IgG1 (antibody, V domains shown)
VH: QVQLVQSGAEVKKPGSSVKVSCKASGGTFWSGAFTWVRQAPGQGLEWMGGIIPISGLTNLAQNFQGRVTITADESTSTAYMELSSLRSEDTAVYYCARSSRIYDLNPSLTAYYDMDVWGQGTMVTVSS
VL: QSVLTQPPSVSAAPGQKVTISCSGSSSDIGNNYVSWYQQLPGTAPKLLIYDNNKRPSGIPDRFSGSKSGTSATLGITGLQTGDEADYYCGTWDSSLSAWVIGGGTKLTVL
B12: IgGWFL (MEDI1912), human IgG1 antibody specific for human nerve growth factor (antibody, V domains shown)
VH: QVQLVQSGAEVKKPGSSVKVSCKASGGTFWFGAFTWVRQAPGQGLEWMGGIIPIFGLTNLAQNFQGRVTITADESTSTVYMELSSLRSEDTAVYYCARSSRIYDLNPSLTAYYDMDVWGQGTMVTVSS
VL: QSVLTQPPSVSAAPGQKVTISCSGSSSDIGNNYVSWYQQLPGTAPKLLIYDNNKRPSGIPDRFSGSKSGTSATLGITGLQTGDEADYYCGTWDSSLSAWVFGGGTKLTVL
B13: evolved scFvWFL variant 126 reformatted as IgG1 (antibody, V domains shown)
VH: QVQLVQSGAEVKKPGSSVKVSCKASGGTFWFGAFTWVRQAPGQGLEWMGGFIPISGLTNLAQNFQGRVTITADESTSTVYMELSSLRSEDTAVYYCARSSRIYDLNPSLTAYYDMDVWGQGTMVTVSS
VL: QSVLTQPPSVSAAPGQKVTISCSGSSSDIGNNYVSWYQQLPGTAPKLLIYDNNKRPSGIPDRFSGSKSGTSATLGITGLQTGDEADYYCGTWDSSLSAWVFGGGTKLTVL

Molecular target: biotinylated nerve growth factor (NGF) (human, UniProt P01138 122-241, biotin (biotinylated in-house, sites not stated))
Sequence (P01138 122-241): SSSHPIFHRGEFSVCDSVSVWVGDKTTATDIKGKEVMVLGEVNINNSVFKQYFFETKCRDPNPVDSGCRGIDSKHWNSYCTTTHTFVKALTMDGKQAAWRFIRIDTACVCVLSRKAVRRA
Experiment: FRET; epitope competition with labelled IgGWFL

Binder | IC50
B1 | 0.136 nM
B2 | 0.573 nM
B3 | 1.91 nM
B4 | 36.8 nM
B5 | 2.06 nM
B6 | 0.251 nM
B7 | 1.41 nM
B8 | 0.649 nM
B9 | 0.177 nM
B10 | 0.201 nM
B11 | 0.935 nM
B12 | 0.363 nM
B13 | 5.69 nM
